Laboratory results as given in patent publication EP1270739A1.
Where “and” joins values, the source holds several entries; their conditions need not be identical. Identical values can stand only once.

What was measured:
[1] = molecular target: purified human placental alkaline phosphatase (hPLAP, SIGMA) (human) (UniProt P05187); experiment: ELISA, plate coated with purified hPLAP; mAb 64 ng/ml in PBS, undiluted; anti-mouse-HRP, TMB
[2] = molecular target: purified human placental alkaline phosphatase (hPLAP, SIGMA) (human) (UniProt P05187); experiment: ELISA, plate coated with purified hPLAP; mAb 64 ng/ml in PBS, diluted 1:2; anti-mouse-HRP, TMB
[3] = molecular target: purified human placental alkaline phosphatase (hPLAP, SIGMA) (human) (UniProt P05187); experiment: ELISA, plate coated with purified hPLAP; mAb 64 ng/ml in PBS, diluted 1:4; anti-mouse-HRP, TMB
[4] = molecular target: purified human placental alkaline phosphatase (hPLAP, SIGMA) (human) (UniProt P05187); experiment: ELISA, plate coated with purified hPLAP; mAb 64 ng/ml in PBS, diluted 1:8; anti-mouse-HRP, TMB
[5] = molecular target: purified human placental alkaline phosphatase (hPLAP, SIGMA) (human) (UniProt P05187); experiment: ELISA, plate coated with purified hPLAP; mAb 64 ng/ml in PBS, diluted 1:16; anti-mouse-HRP, TMB
[6] = molecular target: purified human placental alkaline phosphatase (hPLAP, SIGMA) (human) (UniProt P05187); experiment: ELISA, plate coated with purified hPLAP; mAb 64 ng/ml in PBS, diluted 1:32; anti-mouse-HRP, TMB
[7] = molecular target: purified human placental alkaline phosphatase (hPLAP, SIGMA) (human) (UniProt P05187); experiment: ELISA, plate coated with purified hPLAP; mAb 64 ng/ml in PBS, diluted 1:64; anti-mouse-HRP, TMB
[8] = molecular target: purified human placental alkaline phosphatase (hPLAP, SIGMA) (human) (UniProt P05187); experiment: ELISA, plate coated with purified hPLAP; mAb 64 ng/ml spiked in negative serum, undiluted; anti-mouse-HRP, TMB
[9] = molecular target: purified human placental alkaline phosphatase (hPLAP, SIGMA) (human) (UniProt P05187); experiment: ELISA, plate coated with purified hPLAP; mAb 64 ng/ml spiked in negative serum, diluted 1:2; anti-mouse-HRP, TMB
[10] = molecular target: purified human placental alkaline phosphatase (hPLAP, SIGMA) (human) (UniProt P05187); experiment: ELISA, plate coated with purified hPLAP; mAb 64 ng/ml spiked in negative serum, diluted 1:4; anti-mouse-HRP, TMB
[11] = molecular target: purified human placental alkaline phosphatase (hPLAP, SIGMA) (human) (UniProt P05187); experiment: ELISA, plate coated with purified hPLAP; mAb 64 ng/ml spiked in negative serum, diluted 1:8; anti-mouse-HRP, TMB
[12] = molecular target: purified human placental alkaline phosphatase (hPLAP, SIGMA) (human) (UniProt P05187); experiment: ELISA, plate coated with purified hPLAP; mAb 64 ng/ml spiked in negative serum, diluted 1:16; anti-mouse-HRP, TMB
[13] = molecular target: purified human placental alkaline phosphatase (hPLAP, SIGMA) (human) (UniProt P05187); experiment: ELISA, plate coated with purified hPLAP; mAb 64 ng/ml spiked in negative serum, diluted 1:32; anti-mouse-HRP, TMB
[14] = molecular target: purified human placental alkaline phosphatase (hPLAP, SIGMA) (human) (UniProt P05187); experiment: ELISA, plate coated with purified hPLAP; mAb 64 ng/ml spiked in negative serum, diluted 1:64; anti-mouse-HRP, TMB
[15] = molecular target: purified human placental alkaline phosphatase (hPLAP, SIGMA) (human) (UniProt P05187); experiment: ELISA, plate coated with purified hPLAP; row labelled '0' (not explained, presumably no sample, blank); anti-mouse-HRP, TMB

Chain of UniProt P05187 (P05187 23-506 limits assumed): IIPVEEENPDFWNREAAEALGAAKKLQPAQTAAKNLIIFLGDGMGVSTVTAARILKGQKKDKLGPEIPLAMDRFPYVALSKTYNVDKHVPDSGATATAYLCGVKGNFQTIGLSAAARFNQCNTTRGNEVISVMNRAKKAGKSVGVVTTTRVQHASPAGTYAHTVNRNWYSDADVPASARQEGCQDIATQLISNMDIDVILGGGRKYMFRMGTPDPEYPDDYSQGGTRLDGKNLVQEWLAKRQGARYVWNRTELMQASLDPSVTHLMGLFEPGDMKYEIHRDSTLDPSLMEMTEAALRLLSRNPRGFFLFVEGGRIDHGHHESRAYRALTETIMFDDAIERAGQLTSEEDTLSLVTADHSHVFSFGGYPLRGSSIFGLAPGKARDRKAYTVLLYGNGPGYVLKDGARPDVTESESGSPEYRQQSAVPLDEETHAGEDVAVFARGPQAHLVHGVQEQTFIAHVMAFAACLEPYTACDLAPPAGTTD

| absorbance at 450 nm [1] [absorbance] | absorbance at 450 nm [2] [absorbance] | absorbance at 450 nm [3] [absorbance] | absorbance at 450 nm [4] [absorbance] | absorbance at 450 nm [5] [absorbance] | absorbance at 450 nm [6] [absorbance] | absorbance at 450 nm [7] [absorbance] | absorbance at 450 nm [8] [absorbance] | absorbance at 450 nm [9] [absorbance] | absorbance at 450 nm [10] [absorbance] | absorbance at 450 nm [11] [absorbance] | absorbance at 450 nm [12] [absorbance] | absorbance at 450 nm [13] [absorbance] | absorbance at 450 nm [14] [absorbance] | absorbance at 450 nm [15] | Substance |
| --- | --- | --- | --- | --- | --- | --- | --- | --- | --- | --- | --- | --- | --- | --- | --- |
| 0.486 | 0.487 | 0.424 | 0.282 | 0.169 | 0.091 | 0.047 | 0.546 | 0.439 | 0.341 | 0.209 | 0.123 | 0.071 | 0.042 | 0.007 absorbance and 0.009 absorbance | mouse monoclonal antibody to PLAP (clone 8B6, Sigma Immunochemicals) |
|  |  |  |  |  |  |  |  |  |  |  |  |  |  | 0.005 absorbance | serum of mice injected with saline (negative control serum) |
